The source of these data is patent US20240317847A1 (Bayer, published 2024).

The target in experiment [1] is T1, murine IL-11 (mouse, UniProt P47873 22-199).
T1 construct: Invigate recombinant protein; biotinylated when immobilized in the Di-complex ELISA; also called mIL11; mIL-11
T1 sequence: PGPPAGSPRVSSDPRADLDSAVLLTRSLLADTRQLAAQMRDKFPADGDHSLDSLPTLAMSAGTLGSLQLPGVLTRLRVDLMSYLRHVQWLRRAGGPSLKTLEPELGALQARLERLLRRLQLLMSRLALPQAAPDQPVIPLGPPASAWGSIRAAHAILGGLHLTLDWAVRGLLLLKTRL
The experiment can be described thus: Di-complex ELISA, canine IL11RA-hFc binding to immobilized mIL-11, competition. As for the experimental part: In the Di-complex ELISA format anti IL-11 antibodies are tested for the ability to interfere with the formation of complexes consisting of immobilized murine IL-11 (Invigate, e.g., lot #C210819-09) or human IL-11 (Invigate, e.g., lot #C121021-19), and murine IL11RA-Fc fusion proteins or canine IL11RA-human-Fc fusion protein (FIG. 17a, b).
Bispecific antibodies were subjected to the experimental assay procedure described in Example 18 and IC50 [M], respectively efficacy (%) were calculated accordingly.
In general terms: An ELISA detects its analyte on a solid surface through an enzyme-linked reagent.

Experiment [2] deals with T2, rat IL-11 (rat, UniProt Q99MF5 22-199).
T2 construct: Invigate recombinant protein; also called rIL11
T2 sequence: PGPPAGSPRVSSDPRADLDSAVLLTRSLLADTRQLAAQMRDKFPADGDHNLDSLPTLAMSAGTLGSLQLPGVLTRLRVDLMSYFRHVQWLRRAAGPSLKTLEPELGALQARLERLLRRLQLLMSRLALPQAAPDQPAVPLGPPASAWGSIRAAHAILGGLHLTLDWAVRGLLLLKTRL
As to the kind of experiment: SPR (Biacore), 25 C, antibody captured via anti-Fc, IL-11 as analyte, determined in steady state; SPR at 25 C, determined in steady state. As for the experimental part: (§1) To assess the binding kinetics and affinity of anti-IL-11 bispecific antibodies as well as their species cross-reactivity profile, binding assays were conducted using surface plasmon resonance (SPR). […] Antibodies were captured either via anti-human Fc IgGs (“Human antibody capture kit”, Order No. BR100839, Cytiva) or via anti-mouse Fc IgGs (“Mouse antibody capture kit, Order No. BR100383, Cytiva) covalently amine coupled to a Series S CM5 sensor chip (Cytiva) depending on the isotype. The amine coupling was carried out according to the manufacturer's instructions using 1-ethyl-3-(3-dimethylaminopropyl) carbodiimide hydrochloride (EDC), N-hydroxysuccinimide (NHS) and ethanolamine HCl, pH 8.5 (“Amine Coupling Kit” BR-1000-50, Cytiva.). Human, mouse, cynomolgus or rat IL-11 was used as analyte at several dilutions within the concentration range from 0.05-200 nM. For binding assays with only one concentration 200 nM IL-11 was used. The sensor surface was regenerated with glycine pH 1.7 after each antigen injection. Obtained sensorgrams were double referenced (subtraction of reference flow cell signal and buffer injection) and were fitted to a 1:1 Langmuir binding model to derive kinetic data using the Biacore T200 Evaluation software or the Biacore Insight software.
(§2) If no value is reported, there was either no binding or very low binding and multiphasic binding behavior.
A general note: SPR reads the build-up and loss of mass on a sensor chip optically.

Experiment [3] addresses T3, human IL-11 (human, UniProt P20809 22-199).
T3 construct: Invigate recombinant protein; biotinylated when immobilized in the Di-complex ELISA; also called hIL11; hIL-11
T3 sequence: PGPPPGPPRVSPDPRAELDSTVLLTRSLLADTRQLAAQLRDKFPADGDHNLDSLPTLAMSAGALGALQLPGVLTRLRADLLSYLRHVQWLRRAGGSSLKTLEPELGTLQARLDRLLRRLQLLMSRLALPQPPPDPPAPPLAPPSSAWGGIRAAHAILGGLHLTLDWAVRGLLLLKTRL
The experiment is described as above. The procedure: as §1, §2

The target of experiment [4] is T4, cynomolgus IL-11 (cynomolgus, UniProt P20808 22-199).
T4 construct: Invigate recombinant protein; also called cIL11; Macaca IL-11
T4 sequence: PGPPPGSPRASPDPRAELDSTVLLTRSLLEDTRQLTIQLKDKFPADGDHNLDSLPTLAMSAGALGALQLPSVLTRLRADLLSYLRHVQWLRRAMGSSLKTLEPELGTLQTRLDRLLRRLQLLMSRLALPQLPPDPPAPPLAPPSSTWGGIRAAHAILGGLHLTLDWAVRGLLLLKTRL
The experiment is described as above. The procedure: as §1, §2

In experiment [5] the target is T5, human IL2Ra (human, UniProt P01589 22-240, limits assumed).
T5 construct: bought protein, coated on the plate; also called hIL2RA; IL-2 receptor alpha
T5 sequence (looked up): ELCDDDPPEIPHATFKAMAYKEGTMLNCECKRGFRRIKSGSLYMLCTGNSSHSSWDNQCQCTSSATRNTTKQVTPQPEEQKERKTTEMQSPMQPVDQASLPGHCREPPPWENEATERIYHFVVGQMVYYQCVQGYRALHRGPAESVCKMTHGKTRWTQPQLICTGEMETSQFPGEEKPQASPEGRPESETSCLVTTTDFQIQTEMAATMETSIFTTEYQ
The experiment can be described thus: IL2Ra direct binding ELISA, signal ratio to isotype control. In a few lines: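 Plates coated overnight at 4-8 °C with IL2RA at 1 or 0 μg/ml, blocked with SmartBlock. Antibody dilution series from 1E-7 to 2E-13 M bound 90 min at room temperature, detected with HRP anti-mouse IgG and Amplex red/H2O2; fluorescence at 535/590 nm.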

Experiment [6] addresses T3, human IL-11. As to the kind of experiment: SPR (Biacore), 25 C, antibody captured via anti-Fc, IL-11 as analyte; SPR at 25 C.

As a reminder, the IC50 is the midpoint of a concentration-inhibition curve. By Kd is commonly meant the constant that tells how readily two partners part at equilibrium. Low values mean higher affinity, high ones lower affinity.

B1: TPP-29603 (bispecific antibody, IgG1)
chain 1: QVQLVESGGGVVQPGRSLRLSCAASGFTFSHYDMHWVRQAPGKGLEWVAVISYHGSVKFYADSVKGRFTISRDNSKNTLYLQMNSLRAEDTAVYYCARTPGFHFDYWGQGTLVTVSSGGGGSGGGGSGGGGSQSVLTQPPSASGTPGQRVTISCSGSSSNIGSNYVSWYQQLPGTAPKLLIYYDDLRPSGVPDRFSGSKSGTSASLAISGLRSEDEADYYCSAWDDSLSGVVFGGGTKLTVLGGGGSGGGGSGGGGSGVECPPCPAPPVAGPSVFIFPPKPKDVLTITLTPKVTCVVVDISKDDPEVQFSWFVDDVEVHTAQTQPREEQFNSTFRSVSELPIMHQDWLNGKEFKCRVNSAAFPAPIEKTISKTKGRPKAPQVYTIPPCKEQMAKDKVSLWCMITDFFPEDITVEWQWNGQPAENYKNTQPIMDTDGSYFVYSKLNVQKSNWEAGNTFTCSVLHEGLHNHHTEKSLSHSPGK
chain 2: EVQLLESGGGLVQPGGSLRLSCAASGFTFSSYGMHWVRQAPGKGLEWVAVISYDGSYKYYADSVKGRFTISRDNSKNTLYLQMNSLRAEDTAVYYCAAGVPDYWGQGTLVTVSSGGGGSGGGGSGGGGSQSVLTQPPSASGTPGQRVTISCSGSSSNIGSDYDVHWYQQLPGTAPKLLIYSNEERPSGVPDRFSGSKSGTSASLAISGLRSEDEADYYCSAWDSSLSGPVFGGGTKLTVLGGGGSGGGGSGGGGSGVECPPCPAPPVAGPSVFIFPPKPKDVLTITLTPKVTCVVVDISKDDPEVQFSWFVDDVEVHTAQTQPREEQFNSTFRSVSELPIMHQDWLNGKEFKCRVNSAAFPAPIEKTISKTKGRPKAPQVCTIPPPKEQMAKDKVSLSCAITDFFPEDITVEWQWNGQPAENYKNTQPIMDTDGSYFVVSKLNVQKSNWEAGNTFTCSVLHEGLHNHHTEKSLSHSPGK
notes: scFv-kih-mIgG1; bispecific comprising CDRs of TPP-29528 and TPP-29519
For B1, the concentration for half-maximal inhibition (IC50) in experiment [1] was 3.9 nM.

B2: TPP-18087 (antibody, mouse IgG1, V domains shown)
VH: EVQLLESGGGLVQPGGSLRLSCAASGFTFSHYDMNWLRQAPGKGLEWVGVISYDGSNKFYADFVKGRFTISRDNSKNTLYLQMNSLRAEDTAVYYCARTPGSHFDYWGQGTLVTVSS
VL: QSVLTQPPSASGTPGQRVTISCSGSSSNIGNNAVNWYQQLPGTAPKLLIYYDDLLPSGVPDRFSGSKSGTSASLAISGLRSEDEADYYCSAWDDSLNGVVFGGGTKLTVLG
notes: mIgG1, Lambda
Consider B2, for which the values for the Kd in experiment [2], in experiment [3] and in experiment [4] were 34 nM, 13 nM and 56 nM, respectively.

B3: TPP-18068 (antibody, mouse IgG1)
heavy: EVQLLESGGGLVQPGGSLRLSCAASGFTFSSYGMHWVRQAPGKGLEWVSVISYDGSYKYYADSVKGRFTISRDNSKNTLYLQMNSLRAEDTAVYYCAAGVPDYWGQGTLVTVSSAKTTPPSVYPLAPGSAAQTNSMVTLGCLVKGYFPEPVTVTWNSGSLSSGVHTFPAVLQSDLYTLSSSVTVPSSTWPSETVTCNVAHPASSTKVDKKIVPRDCGCKPCICTVPEVSSVFIFPPKPKDVLTITLTPKVTCVVVDISKDDPEVQFSWFVDDVEVHTAQTQPREEQFNSTFRSVSELPIMHQDWLNGKEFKCRVNSAAFPAPIEKTISKTKGRPKAPQVYTIPPPKEQMAKDKVSLTCMITDFFPEDITVEWQWNGQPAENYKNTQPIMDTDGSYFVYSKLNVQKSNWEAGNTFTCSVLHEGLHNHHTEKSLSHSPGK
light: QSVLTQPPSASGTPGQRVTISCTGSSSNIGAGYDVHWYQQLPGTAPKLLIYSNNERPSGVPDRFSGSKSGTSASLAISGLRSEDEADYYCAAWDDSLNGPVFGGGTKLTVLGQPKSSPSVTLFPPSSEELETNKATLVCTITDFYPGVVTVDWKVDGTPVTQGMETTQPSKQSNNKYMASSYLTLTARAWERHSSYSCQVTHEGHTVEKSLSRADCS
notes: mIgG1, Lambda
Take B3: the “hIL2RA ELISA Binding: Ratio to Isotpye” value in experiment [5] was found to be 398 ratio.

B4: TPP-18068 (antibody, mouse IgG1)
heavy: EVQLLESGGGLVQPGGSLRLSCAASGFTFSSYGMHWVRQAPGKGLEWVSVISYDGSYKYYADSVKGRFTISRDNSKNTLYLQMNSLRAEDTAVYYCAAGVPDYWGQGTLVTVSSAKTTPPSVYPLAPGSAAQTNSMVTLGCLVKGYFPEPVTVTWNSGSLSSGVHTFPAVLQSDLYTLSSSVTVPSSTWPSETVTCNVAHPASSTKVDKKIVPRDCGCKPCICTVPEVSSVFIFPPKPKDVLTITLTPKVTCVVVDISKDDPEVQFSWFVDDVEVHTAQTQPREEQFNSTFRSVSELPIMHQDWLNGKEFKCRVNSAAFPAPIEKTISKTKGRPKAPQVYTIPPPKEQMAKDKVSLTCMITDFFPEDITVEWQWNGQPAENYKNTQPIMDTDGSYFVYSKLNVQKSNWEAGNTFTCSVLHEGLHNHHTEKSLSHSPGK
light: QSVLTQPPSASGTPGQRVTISCTGSSSNIGAGYDVHWYQQLPGTAPKLLIYSNNERPSGVPDRFSGSKSGTSASLAISGLRSEDEADYYCAAWDDSLNGPVFGGGTKLTVLGQPKSSPSVTLFPPSSEELETNKATLVCTITDFYPGVVTVDWKVDGTPVTQGMETTQPSKQSNNKYMASSYLTLTARAWERHSSYSCQVTHEGHTVEKSLSRADCS
notes: mIgG1, Lambda
As for B4, the affinity in experiment [6], expressed as Kd, was 25 nM.
